Assay [1] concerns the target T1, Recombinant wild-type InlC with a C-terminal 6xHis tag (Listeria monocytogenes, UniProt P71451 35-297).
T1 sequence (looked up): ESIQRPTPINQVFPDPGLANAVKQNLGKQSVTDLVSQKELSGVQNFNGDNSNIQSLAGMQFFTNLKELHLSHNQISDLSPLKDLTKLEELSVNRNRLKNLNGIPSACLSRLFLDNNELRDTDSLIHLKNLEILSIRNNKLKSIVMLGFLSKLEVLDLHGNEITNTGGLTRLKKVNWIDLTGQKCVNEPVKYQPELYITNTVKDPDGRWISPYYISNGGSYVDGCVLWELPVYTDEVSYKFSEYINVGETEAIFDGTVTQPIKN
The experiment in a line: SPR.

The target of assay [2] is T2, Recombinant InlC.K173A with a C-terminal 6xHis tag (Listeria monocytogenes, UniProt P71451 35-297, K173A).
T2 sequence (looked up): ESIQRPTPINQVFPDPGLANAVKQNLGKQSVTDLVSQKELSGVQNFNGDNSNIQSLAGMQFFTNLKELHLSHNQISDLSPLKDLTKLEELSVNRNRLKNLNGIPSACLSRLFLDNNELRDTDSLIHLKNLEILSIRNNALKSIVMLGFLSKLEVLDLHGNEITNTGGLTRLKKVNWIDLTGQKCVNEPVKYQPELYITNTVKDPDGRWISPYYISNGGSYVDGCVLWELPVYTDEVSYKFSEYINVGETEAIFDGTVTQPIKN
The experiment in a line: SPR. (In SPR one partner is held on a chip, and binding of the other changes the refractive index at the surface.)

B1: SH36 protein of Tuba linked to the biosensor chip (domain or fragment, human, UniProt Q6XZF7 1513-1577, looked up)
chain: EGNQVYFAVYTFKARNPNELSVSANQKLKILEFKDVTGNTEWWLAEVNGKKGYVPSNYIRKTEYT
One may read the Kd as the concentration at which binding is half-saturated. Take B1: the values for the Kd in assay [1] and in assay [2] were 9 ± 3.5 µM and 58 ± 12.3 µM, respectively.

Source of the values: publication PMC2755649 (Nature cell biology, 2009).
